Reference: patent US20060034860A1 (CELLVIR, published 2006)

Assays:
[1] = target: T1, BRCA1 assoc. Prot.1 (BAP1), prey17662 / prey145885, prey fragments (Human, UniProt Q92560 1-729); experiment: yeast two-hybrid screen, bait NC_v1 (pB6), Human CEMC7 Random Primed prey library; table of bait-prey interactions
T1 construct: also called hBAP1; Ubiquitin Hydrolase
T1 sequence: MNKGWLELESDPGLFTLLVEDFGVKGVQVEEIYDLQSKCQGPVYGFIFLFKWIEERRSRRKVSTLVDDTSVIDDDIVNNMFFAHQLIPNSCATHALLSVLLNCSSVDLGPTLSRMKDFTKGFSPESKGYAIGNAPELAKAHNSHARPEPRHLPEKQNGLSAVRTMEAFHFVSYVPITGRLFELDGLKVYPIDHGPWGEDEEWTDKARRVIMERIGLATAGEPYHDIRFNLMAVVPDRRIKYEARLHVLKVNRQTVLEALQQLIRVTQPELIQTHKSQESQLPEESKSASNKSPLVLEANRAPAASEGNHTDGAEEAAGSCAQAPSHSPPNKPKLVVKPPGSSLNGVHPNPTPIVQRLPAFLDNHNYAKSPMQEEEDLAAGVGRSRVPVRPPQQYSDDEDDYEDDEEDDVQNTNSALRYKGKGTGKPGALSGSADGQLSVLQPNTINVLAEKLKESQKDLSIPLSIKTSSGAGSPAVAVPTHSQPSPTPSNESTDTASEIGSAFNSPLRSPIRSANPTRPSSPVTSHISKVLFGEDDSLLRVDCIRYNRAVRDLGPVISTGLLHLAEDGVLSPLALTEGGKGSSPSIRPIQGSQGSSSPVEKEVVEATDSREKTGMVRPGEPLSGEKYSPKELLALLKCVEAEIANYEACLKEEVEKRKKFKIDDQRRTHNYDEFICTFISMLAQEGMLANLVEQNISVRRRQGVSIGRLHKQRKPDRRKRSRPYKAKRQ

[2] = target: T2, Human AKAP1 (prey026778), A kinase anchor protein 1 (Human, UniProt Q92667 30-903); experiment: yeast two-hybrid screen, bait RT_v1, CEMC7 random primed cDNA prey library; table of bait-prey interactions
T2 construct: Prey fragments (vector pP6) in the primary screen
T2 sequence: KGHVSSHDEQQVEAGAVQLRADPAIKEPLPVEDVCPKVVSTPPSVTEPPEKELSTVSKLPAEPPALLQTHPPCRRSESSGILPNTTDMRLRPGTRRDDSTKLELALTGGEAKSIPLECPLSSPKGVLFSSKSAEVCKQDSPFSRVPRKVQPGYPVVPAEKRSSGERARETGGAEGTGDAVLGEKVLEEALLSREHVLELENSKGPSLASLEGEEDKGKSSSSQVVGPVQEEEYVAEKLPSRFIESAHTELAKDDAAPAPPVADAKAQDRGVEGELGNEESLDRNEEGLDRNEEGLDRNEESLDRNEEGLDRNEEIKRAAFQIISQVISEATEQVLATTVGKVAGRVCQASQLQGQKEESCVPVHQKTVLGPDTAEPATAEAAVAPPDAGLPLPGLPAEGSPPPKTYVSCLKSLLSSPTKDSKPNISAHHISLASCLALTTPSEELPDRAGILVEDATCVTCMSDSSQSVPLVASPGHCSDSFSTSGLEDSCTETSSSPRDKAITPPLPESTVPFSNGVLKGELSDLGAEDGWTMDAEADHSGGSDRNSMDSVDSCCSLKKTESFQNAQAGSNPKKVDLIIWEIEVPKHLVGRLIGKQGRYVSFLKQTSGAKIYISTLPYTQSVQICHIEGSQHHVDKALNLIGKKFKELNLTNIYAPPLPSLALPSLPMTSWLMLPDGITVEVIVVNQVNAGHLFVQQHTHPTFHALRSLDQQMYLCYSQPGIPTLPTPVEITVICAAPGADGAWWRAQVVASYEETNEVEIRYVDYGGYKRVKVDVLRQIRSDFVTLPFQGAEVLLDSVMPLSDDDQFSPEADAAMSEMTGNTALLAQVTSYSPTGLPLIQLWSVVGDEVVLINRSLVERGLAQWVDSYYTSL

[3] = target: T3, Casein Kinase 2, beta polypeptide (CSNK2B), prey47239, prey fragments (Human, UniProt P67870 2-215); experiment: yeast two-hybrid screen, bait PR_v1 (pB27), Human CEMC7 Random Primed prey library; table of bait-prey interactions
T3 construct: also called hCSNK2B; regulatory beta chain of CK2

[4] = target: T4, Human UBE1 (prey030679), prey fragments (Human, UniProt P22314 2-1058); experiment: yeast two-hybrid screen, bait PR_v1 (pB27), CEMC7 oligo dT primed cDNA prey library; table of bait-prey interactions
T4 sequence: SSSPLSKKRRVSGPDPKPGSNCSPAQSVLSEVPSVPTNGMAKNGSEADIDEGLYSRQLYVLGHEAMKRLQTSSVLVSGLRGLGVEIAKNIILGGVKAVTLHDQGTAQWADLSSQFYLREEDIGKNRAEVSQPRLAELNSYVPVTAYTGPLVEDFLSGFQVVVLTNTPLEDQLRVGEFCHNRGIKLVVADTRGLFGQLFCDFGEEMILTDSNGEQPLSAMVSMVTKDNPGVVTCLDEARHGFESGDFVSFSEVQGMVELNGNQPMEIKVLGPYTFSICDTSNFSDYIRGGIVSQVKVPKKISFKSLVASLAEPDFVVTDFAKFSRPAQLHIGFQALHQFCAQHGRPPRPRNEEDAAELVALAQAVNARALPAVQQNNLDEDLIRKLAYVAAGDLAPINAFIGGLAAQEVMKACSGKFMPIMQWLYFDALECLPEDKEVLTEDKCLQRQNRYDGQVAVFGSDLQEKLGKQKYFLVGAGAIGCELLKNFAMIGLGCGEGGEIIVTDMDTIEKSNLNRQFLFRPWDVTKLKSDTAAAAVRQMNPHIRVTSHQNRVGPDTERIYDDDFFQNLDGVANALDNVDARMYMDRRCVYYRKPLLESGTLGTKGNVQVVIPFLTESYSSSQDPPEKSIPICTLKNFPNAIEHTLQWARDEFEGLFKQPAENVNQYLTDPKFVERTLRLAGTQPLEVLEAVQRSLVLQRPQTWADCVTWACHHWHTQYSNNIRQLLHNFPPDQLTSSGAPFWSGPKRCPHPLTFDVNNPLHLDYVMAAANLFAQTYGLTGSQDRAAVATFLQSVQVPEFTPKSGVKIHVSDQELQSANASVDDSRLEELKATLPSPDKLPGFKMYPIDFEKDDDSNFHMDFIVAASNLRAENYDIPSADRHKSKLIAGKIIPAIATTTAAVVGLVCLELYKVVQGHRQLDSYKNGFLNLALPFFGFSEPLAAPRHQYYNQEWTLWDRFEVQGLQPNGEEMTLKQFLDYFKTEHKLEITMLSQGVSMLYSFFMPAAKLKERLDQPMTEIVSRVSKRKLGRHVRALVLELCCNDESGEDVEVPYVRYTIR

T3 sequence (P67870 2-215 limits assumed): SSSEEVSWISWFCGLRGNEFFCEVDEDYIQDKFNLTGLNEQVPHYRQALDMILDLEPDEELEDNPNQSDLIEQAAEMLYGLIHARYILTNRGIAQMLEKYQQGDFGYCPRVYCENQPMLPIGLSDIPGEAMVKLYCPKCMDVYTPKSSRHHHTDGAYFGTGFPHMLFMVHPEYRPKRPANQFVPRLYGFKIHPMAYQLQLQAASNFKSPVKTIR

B1: HIV-1 Nucleocapsid NCp7, bait NC_v1 (other)
chain: MQRGNFRNQRKTVKCFNCGKEGHIAKNCRAPRKKGCWKCGKEGHQMKDCTERQAN
binding result [1]: binds

B2: HIV-1 reverse transcriptase p66 subunit, bait RT_v1 (enzyme)
chain: not shown
notes: also called p66 RT; HIV-1 p66 RT
binding result [2]: binds

B3: HIV-1 protease, bait PR_v1 (enzyme)
chain: not shown
binding result [3]: binds
binding result [4]: binds
